From the DeepSol protein solubility set

Experiment: soluble on expression in E. coli; label from the status in PepcDB or PDB records

Row | Sequence | soluble on expression in E. coli
1 | MGSSHHHHHHSSGLVPRGSHMLELRLVQGSLLKKVLESIKDLVNDANFDCSSTGFSLQAMDSSHVALVSLLLRSEGFEHYRCDRNLSMGMNLGNMSKMLKCAGNDDIITIKADDGGDTVTFMFESPTQDKIADFEMKLMDIDSEHLGIPDAEYHSIVRMPSNEFSRICKDLSSIGDTVVISVTKEGVKFSTAGDIGTANIVLRQNTTVDKPEDAIVIEMKEPVSLSFALRYMNSFTKATPLSDTVTISLSSELPVVVEYKVAEMGYIRYYLAPKIE | soluble
2 | MGSSHHHHHHSSGLVPRGSHMMIVIMDNGGQYVHRIWRTLRYLGVETKIIPNTTPLEEIKAMNPKGIIFSGGPSLENTGNCEKVLEHYDEFNVPILGICLGHQLIAKFFGGKVGRGEKAEYSLVEIEIIDEDEIFKGLPKRLKVWESHMDEVKELPPKFKILARSETCPIEAMKHEELPIYGVQFHPEVAHTEKGEEILRNFAKLCGEL | soluble
3 | MGSSHHHHHHSSGLVPRGSHMRPHGDTAKKPIIGILMQKCRNKVMKNYGRYYIAASYVKYLESAGARVVPVRLDLTEKDYEILFKSINGILFPGGSVDLRRSDYAKVAKIFYNLSIQSFDDGDYFPVWGTCLGFEELSLLISGECLLTATDTVDVAMPLNFTGGQLHSRMFQNFPTELLLSLAVEPLTANFHKWSLSVKNFTMNEKLKKFFNVLTTNTDGKIEFISTMEGYKYPVYGVQWHPEKAPYEWKNLDGISHAPNAVKTAFYLAEFFVNEARKNNHHFKSESEEEKALIYQFSPIYTGNISSFQQCYIFD | soluble
4 | MGSSHHHHHHSSGLVPRGSHMSGALKENSGKPSEVEYTHFKDLQALEMERGRLYETIVVTWDDSMVGNAAPIGVLCTGDDTVTLYLYQGTRTVENVLNNGRFTVNVTLDPLIFTDSTLGDLEEDMFSHYRDFLHLRGADAFFTAEVVSVKKLVKRDRFGESELHVVKARAGDVMRAESFRMALNRGIYAVIESLIAYTRAEFSDPLVLRERIAEMNRVARKVGGPREKEAMRRIIQALESKIS | soluble
5 | MGSSHHHHHHSSGLVPRGSHMTATLGINGFGRIGRLVLRACMERNDITVVAINDPFMDVEYMAYLLKYDSVHGNFNGTVEVSGKDLCINGKVVKVFQAKDPAEIPWGASGAQIVCESTGVFTTEEKASLHLKGGAKKVIISAPPKDNVPMYVMGVNNTEYDPSKFNVISNASSTTNCLAPLAKIINDKFGIVEGLMTTVHSLTANQLTVDGPSKGGKDWRAGRCAGNNIIPASTGAAKAVGKVIPALNGKLTGMAIRVPTPDVSVVDLTCKLAKPASIEEIYQAVKEASNGPMKGIMGYTSDDVVSTDFIGCKYSSILDKNACIALNDSFVKLISWYDNESGYSNRLVDLAVYVASRGL | soluble
6 | MGSSHHHHHHSSGLVPRGSHMVAFLRGDRRKENSDNFRTRNSILGDIINSSPATVGKAQYLTYLAQPIEPSGNYSTFAEAQKTRAPRVYVGANDGMLHGFDTDGNETFAFIPSAVFEKMHKLTARGYQGGAHQFYVDGSPVVADAFFGGAWHTVLIGSLRAGGKGLFALDVTDPANIKLLWEIGVDQEPDLGYSFPKPTVARLHNGKWAVVTGNGYSSMNDKAALLIIDMETGAITRKLEVTGRTGVPNGLSSPRLADNNSDGVADYAYAGDLQGNLWRFDLIAGKVNQDDPFSRANDGPAVASSFRVSFGGQPLYSAVDSAGAAQAITAAPSLVRHPTRKGYIVIFGTGKYFENADARADTSRAQTLYGIWDQQTKGEAAGSTPRLTRGNLQQQTLDLQADSTFASTARTIRIASQNPVNWLNNDGSTKQSGWYLDFMVNGTLKGEMLIEDMIAIGQVVLLQTITPNDDPCADGASNWTYGLDPYTGGRTSFTVFDLARQGVVDSKSDYSYNKQNVAVSGTEQKGLGGLTLSTNEQGNPEVCSSGECLTVNPGPNTRGRQNWRPIEGKN | soluble
7 | MGSSHHHHHHSSGLVPRGSMAQGLIEVERKFLPGPGTEERLQELGGTLEYRVTFRDTYYDTPELSLMQADHWLRRREDSGWELKCPGAAGVLGPHTEYKELTAEPTIVAQLCKVLRADGLGAGDVAAVLGPLGLQEVASFVTKRSAWKLVLLGADEEEPQLRVDLDTADFGYAVGEVEALVHEEAEVPTALEKIHRLSSMLGVPAQETAPAKLIVYLQRFRPQDYQRLLEVNSS | soluble
8 | MGSSHHHHHHSSGLVPRGSTKVKYVDKIHIGNYEIDAWYFSPFPEDYGKQPKLWLCEYCLKYMKYEKSYRFHLGQCQWRQPPGKEIYRKSNISVHEVDGKDHKIYCQNLCLLAKLFLDHKTLYFDVEPFVFYILTEVDRQGAHIVGYFSKEKESPDGNNVACILTLPPYQRRGYGKFLIAFSYELSKLESTVGSPEKPLSDLGKLSYRSYWSWVLLENLRDFRGTLSIKDLSQMTSITQNDIISTLQSLNMVKYWKGQHVICVTPKLVEEHLKSAQYKKPPITVDSVCLKWAPPK | soluble
9 | MGSSHHHHHHSSGRENLYFQGMKLATLKDSTRDGKLVVVSKDLTRCSEVGHIARTLQAALDDWAHAGPRLERVAEGIETGAQPTMRFHEHDAASPLPRAFQWADGSAYVNHVELVRKARNAEMPASFWTDPLIYQGGSDSFLGPRDPILMADDAWGIDMEGEAAVIVDDVPMGATLDEAKAAIRLVMLVNDVSLRGLIPGELAKGFGFYQSKPSSAFSPVAVTPEELGEAWDGGKLHLPLHVDLNGEPFGRANAGIDMTFDFPQLIVHAARTRPLSAGTIIGSGTVSNKLEGGPGRPVSEGGAGYSCIAELRMIETIEGGAPKTQFLKFGDVVRIEMKDRTGHSIFGAIEQKVGKYERG | soluble
10 | MGSSHHHHHHSSGRENLYFQGMQCNTSIEDGLDGGDITFPSYSPEAEAQNRFLPRSEFPSVRQLVISKQKSRRRREENVFVGKMEDVLVKWRPPASSHRGAIEAINGTHPYQLSTAQFNSRRSDPFGSTKRDESVRSIVESFTDWWKRNSKMFFRDEEEGVRTEHSASQDDQELQLFEEDLFSFHLSPNDMSTRNSEHQVQTPVLFPYEAPTRTKQNPAERKVIEIGDGEELSIYRDVYSNPIPVSYLDTLNLNHSMSVRQTQQQQQQRQQQQYVDSSSAFQCCTDSNWARIFFCHHD | soluble
11 | MGTEFNGLFDEWAHTYDSFVQGEDIQYKEVFAHYEDILEDVVNKSFGNVLEFGVGTGNLTNKLLLAGRTVYGIEPSREMRMIAKEKLPKEFSITEGDFLSFEVPNSIDTIVSTYAFHHLTDDEKNVAIAKYSQLLNKGGKIVFADTIFADQDAYDKTVETSKRKRFPPVSKRFANGILYTYSSYADYFLEHHHHHH | soluble
12 | MGTKTKKTLFNVDEQMKAIAAQFETLQILNEKGEVVNEAAMPELSDDQLKELMRRMVYTRVLDQRSISLNRQGRLGFYAPTAGQEASQLASHFALEAEDFILPGYRDVPQLVWHGLPLYQAFLFSRGHFMGNQMPENVNALAPQIIIGAQIIQTAGVALGMKLRGKKSVAITYTGDGGASQGDFYEGMNFAGAFKAPAIFVVQNNRYAISTPVEKQSAAKTVAQKAVAAGIYGIQVDGMDPLAVYAATAFARERAVNGEGPTLIETLTFRYGPHTMAGDDPTRYRTKDIENEWEQKDPIVRFRAFLENKGLWSQEVEEKVIEEAKEDIKQAIAKADQAPKQKVTDLMEIMYEKMPYNLAEQYEIYKEKESK | not soluble
13 | MGVEQILKRKTGVIVGEDVHNLFTYAKEHKFAIPAINVTSSSTAVAALEAARDSKSPIILQTSNGGAAYFAGKGISNEGQNASIKGAIAAAHYIRSIAPAYGIPVVLHSDHCAKKLLPWFDGMLEADEAYFKEHGEPLFSSHMLDLSEETDEENISTCVKYFKRMAAMDQWLEMEIGITGGEEDGVNNENADKEDLYTKPEQVYNVYKALHPISPNFSIAAAFGNCHGLYAGDIALRPEILAEHQKYTREQVGCKEEKPLFLVFHGGSGSTVQEFHTGIDNGVVKVNLDTDCQYAYLTGIRDYVLNKKDYIMSPVGNPEGPEKPNKKFFDPRVWVREGEKTMGAKITKSLETFRTTNTL | soluble
14 | MGVKRKKMGKVAGFTEWTAEDLEAFRARWPIGTAQRLALELYQWTGARCVDVIRLGPQMVGRDGVLTYVQQKTGNPAHVPWTCPAFGLEEQRADLMRCLPVGSPVYMLTEYGKPRTQKGVSQWFSAAAREAGLESRTAHGLRKYRMNALAEHGASVLVMQSWVGHTTLLEVQEYTRRADRRRVISGGHAAALEHHHHHH | not soluble
15 | MHDTMHKIFGATPPIFSYTPILTMNLCIAKATPNVCHSTGNLCKAEMDNVTSWVYDKTQGLFITGE | not soluble
16 | MHFKTKLKNRRSEVNTCLCIGLDPDEDDIKNFMKNEEQNGYKNIKNNMNSNNNGIENIIKIGKEILLTDGENIQNLSEEDKFFYFFNHFCFYIINNTKEYALVYKMNFAFYIPYGSVGINALKNVFDYLNSMNIPTMLDMKINDIGNTVKNYRKFIFEYLKSDSCTINVYMGTNMLKDICFDYEKNKYYSAYVLIKTTNKDSFIFQNELSINDKQAYIVMADETQKMATELKIEQNNEFIGFVVGSNAFEEMKIIRNKFPDSYILSPGIGAQNGDLYKTLKNGYNKDYEKLLINVGRAITKSPDPKKSSESYYNQIIQIFKDIENGDNIEQV | soluble
17 | MHGLKRSLMIRTVCRGKATTAGADLPQSSQEIEVTTPKSENVPAKSANASTVYRPPYYRKPHQHHEPKHMLQEEFVNAGDASGAGVRVFDYYKTAEMVHSMPTIKEKIDFVSPYERPWTRAEKTWRRDWHPTLMATRKAWGIPPTPAHFDTLDYYKYLTKTRVENESLDDFYHGLRPPTADLQTSFQNTLKSMEFGDGINFSDEDTQKLFGSLIDDAMGGIAHNVSRLADHRVAYDVESEAFWVRSGFMFLYDEEEIGTRDVKRRLNNFPKFIGDDRRKLGELAFVHRDKLAAQVRSKEPSAPLHSFDSEDAKLPIFDTNYNFEETLFSPKVYNLWPDQEPLWQCPGYHADSGESHTYGILGVKSLRPLRKRIAHWMGWENENELESSEEAKQMLDDGARSQAIISMFTTLCAQAHTHGFTQYTDITRSFTSQLVLSDGINFWFAIGQLNTIAINVECDGFVNPRTNYIRIDGPYRLFDYCDKNGQYLSVQEEIDAENKVQRKIAPGLNEKVLERVTQMLMKQ | not soluble
18 | MHHHHHHAADPPPVHDTDGHELRADANYYVLSANRAHGGGLTMAPGHGRHCPLFVSQDPNGQHDGFPVRITPYGVAPSDKIIRLSTDVRISFRAYTTCLQSTEWHIDSELAAGRRHVITGPVKDPSPSGRENAFRIEKYSGAEVHEYKLMSSGDWCQDLGVFRDLKGGAWFLGATEPYHVVVFKKAPPA | soluble
19 | MHHHHHHHHHHISSASGESQMSLDEIEDVYHTRPGYRPEEYRWGQGGAKIIDYHIQSAGVDFPPSLTGNQQTDFLMKVVFEYDFDCVVPGILIKTLDGLFLYGTNSFLASEGRENISVSRGDVRVFKFSLPVDLNSGDYLLSFGISAGNPQTDMTPLDRRYDSIILHVTKSMDFWGVIDLKSSFTSYQ | soluble
20 | MHHHHHHLVPRGSMLDFEKPLFEIRNKIESLKESQDKNDVDLQEEIDMLEASLERETKKIYTNLKPWDRVQIARLQERPTTLDYIPYIFDSFMELHGDRNFRDDPAMIGGIGFLNGRAVTVIGQQRGKDTKDNIYRNFGMAHPEGYRKALRLMKQAEKFNRPIFTFIDTKGAYPGKAAEERGQSESIATNLIEMASLKVPVIAIVIGEGGSGGALGIGIANKVLMLENSTYSVISPEGAAALLWKDSNLAKIAAETMKITAHDIKQLGIIDDVISEPLGGAHKDIEQQALAIKSAFVAQLDSLESLSRDEIANDRFEKFRNIGSYIE | soluble
21 | MHHHHHHSSGRENLYFQGPKCIQCGQYLDDPDLKYGQHPPDAVDEPQMLTNEKLSIFDANESGFESYEALPQHKLTCFSVYCKHGHLCPIDTGLIEKNIELFFSGSAKPIYDDDPSLEGGVNGKNLGPINEWWITGFDGGEKALIGFSTSFAEYILMDPSPEYAPIFGLMQEKIYISKIVVEFLQSNSDSTYEDLINKIETTVPPSGLNLNRFTEDSLLRHAQFVVEQVESYDEAGDSDEQPIFLTPCMRDLIKLAGVTLGQRRAQAR | soluble
